Laboratory results from patent US5652133A, “Cloning and expression of the human macrophage inflammatory protein-1.alpha . α) /rantes receptor” (The United States of America as represented by the …, priority 1993, dated 1997).

Key:
MIP-1α/RANTES receptor [1] = target: T1, MIP-1α/RANTES receptor (Homo sapiens, UniProt P32246); assay: Calcium efflux assay in Xenopus oocytes injected with MIP-1α/RANTES receptor cRNA; assay type: cell-based; details: for responsiveness of cRNA-injected oocytes to ligand (calcium efflux): oocytes injected with 10 ng receptor cRNA, IL-8, GRO-α, NAP-2 at 500 nM, MIP-1α/MIP-1β Sf9 supernatant 1:5, panel C ligands at 250 nM
T1 construct: I.D. No. 1; expressed in transfected cells; host or cells: Xenopus laevis oocytes microinjected with receptor cRNA
T1 sequence (P32246 1-355): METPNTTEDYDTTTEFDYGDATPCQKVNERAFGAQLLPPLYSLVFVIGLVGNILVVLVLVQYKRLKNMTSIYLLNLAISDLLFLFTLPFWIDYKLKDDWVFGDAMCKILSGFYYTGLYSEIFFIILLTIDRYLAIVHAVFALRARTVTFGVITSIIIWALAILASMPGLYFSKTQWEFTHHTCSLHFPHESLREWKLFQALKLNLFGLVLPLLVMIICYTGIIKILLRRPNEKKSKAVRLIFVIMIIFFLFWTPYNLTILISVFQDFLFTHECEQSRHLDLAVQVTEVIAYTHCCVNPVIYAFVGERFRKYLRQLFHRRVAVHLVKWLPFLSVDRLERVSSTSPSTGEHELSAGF
Description: (§1) The materials and methods used for the calcium efflux assay were as described in Murphy, et al., J. Immunol. 145:2227-2234 (1990). Adult female laboratory bred Xenopus laevis (Nasco, Fort Atkinson, Wis.) were maintained at 19° C. to 22° C. in a light-dark cycle of 12 h per phase. The frogs were anesthetized and ovarian lobes were resected and defolliculated in OR2 solution (82.5 mM NaCl, 1 mM MgCl2, 2.4 mM KCl, 5 mM HEPES, pH 7.5) containing 2 mg/ml collagenase for 2 h on a rotary shaker. Stage V-VI oocytes were transferred to ND96 solution (96 mM NaCl, 2 mM KCl, 1.8 mM CaCl2, 1 mM MgCl2, 2.4 mM sodium pyruvate, penicillin 100 U/ml, streptomycin 100 μg/ml, 5 mM HEPES, pH 7.4 to 7.5).
(§2) After 1-2 days, oocytes were microinjected with RNA samples in a total volume of 50 nl per oocyte and were then incubated in ND96 solution at 20° C. to 23° C. for 3 to 5 days. Oocytes were then incubated in 500 μl of OR2 medium containing ^45 Ca^2+ [50 μCi/ml (ICN Biomedicals, Costa Mesa, Calif.)] for 3 hours at 20° C. After ten washes with ND96 medium, individual oocytes were stimulated with ligand in wells of a 96-well tissue culture plate containing 100 μl of ND96 medium. Three 100 μl samples of the incubation medium were collected and analyzed by liquid scintillation counting: a) the final 100 μl wash (20 min) before application of ligand; b) fluid containing the stimulus, removed after a 20 min incubation with the oocyte; and c) the oocyte solubilized in SDS (1%) in medium 20 min after stimulation. Data are presented as the mean±standard error of the mean (SEM) of the percent of loaded ^45 Ca^2+ that was released by individual oocytes in response to the stimulus, or [(b-a).div.(b+c)]×100.
Ligands were all human recombinant material obtained from the following sources: MIP-1α (R and D Systems, Minneapolis, Minn.); IL-8, RANTES, and MCAF (Genzyme, Cambridge, Mass.); NAP-2 (Bachem Bioscience, Philadelphia, Pa.); GRO-α (a gift from M. P. Beckmann, S. Lyman and D. Cerretti). MIP-1α and MIP-1β used in a ligand screen was a gift of U. Siebenlist (NIAID, Bethesda, Md.) and were used as a diluted supernatant of Sf9 insect cells expressing immunoreactive recombinant human MIP-1α (from clone pAT464) or MIP-1β (from clone pAT744) that was prepared as described in Zipfel et al. J. Immunol. 142:1582-1590 (1989) and Zipfel et al. Lymph. Cyto. Res. 11:141-148 (1992). All proteins were diluted from aqueous stock solutions or culture supernatants into ND96 oocyte media (96 mM NaCl, […], pH 7.45) containing 0.1% bovine serum albumin.
Five days after injection with 10 ng of either MIP-1α/RANTES receptor cRNA (closed bars) or IL-8 receptor B cRNA (open bars), oocytes were stimulated with recombinant human IL-8, GRO-α or NAP-2 at 500 nM, or a 1:5 dilution of an Sf9 supernatant containing recombinant human MIP-1α or MIP-1β. […] Oocytes injected with 50 ng HL-60 RNA (closed circle) or 10 ng of MIP-1α/RANTES receptor cRNA (open circle) were stimulated with the indicated concentration of recombinant human MIP-1α. […] Oocytes were injected with either HL-60 RNA (open bars) or MIP-1α/RANTES receptor cRNA (closed bars) and stimulated with the indicated ligand at 250 nM. In panels A-C, the data derive from 5-8 replicate determinations per point.

IL-8 receptor B [2] = assay: Calcium efflux assay in Xenopus oocytes injected with IL-8 receptor B cRNA; assay type: cell-based, human; details: oocytes injected with 10 ng IL-8 receptor B cRNA; 1:5 dilution of Sf9 supernatant
Description: as §1
as §2, with “After ten washes with ND96 medium, individual oocytes were stimulated with ligand in wells of a 96-well tissue culture plate containing 100 μl of ND96 medium.” left out, “Data are presented as the mean±standard error of the mean (SEM) of the percent of loaded ^45 Ca^2+ that was released by individual oocytes in response to the stimulus, or [(b-a).div.(b+c)]×100.” left out

IL-8 receptor B [3] = assay: Radioligand binding of 125I-MIP-1α to oocytes expressing IL-8 receptor B; set-up: species or system human; details: single oocytes, 30 min on ice
MIP-1α/RANTES receptor [4] = target: T1, MIP-1α/RANTES receptor; assay: Radioligand binding of 125I-MIP-1α to oocytes injected with MIP-1α/RANTES receptor cRNA
Description: Carrier free recombinant human MIP-1α 10 μg (Genzyme, Cambridge, Mass.) was labeled using 5 mCi Na^125 I (Amersham, Arlington Heights, Ill.) in 100 μl 0.2M sodium phosphate, pH 7.2 and 50 μl reconstituted Enzymobeads (BioRad, Richmond, AC). The reaction was started using 25 μl 1% β-D-glucose and allowed to continue for 20 minutes. Labeled sample was separated from the free iodine using a NAP-5 column (Pharmacia LKB, Piscataway, N.J.) which had been previously rinsed with 1% bovine serum albumin in 0.2M sodium phosphate, pH 7.2. Labeled material was collected from the column and analyzed on a 14% acrylamide gel. Single oocytes were incubated with ^125 I-MIP-1α for 30 min on ice in 10 μl of binding buffer (Hanks' balanced salt solution with 25 mM HEPES, 1% bovine serum albumin, pH 7.4). Unbound ligand was removed by centrifugation of the oocyte through 300 μl of F50 silicone fluid (General Electric, Waterford, N.Y.). The tubes were quickly frozen and gamma emissions from the amputated tips were counted.
Binding of ^125 I-labeled MIP-1α to oocytes injected with MIP-1α/RANTES receptor cRNA. (A) Total (closed circles) and non-specific binding (open circles) was determined by incubating oocytes injected with MIP-1α/RANTES receptor cRNA with the indicated concentration of ^125 I-labeled MIP-1α in the absence or presence of a 100 fold molar excess of unlabeled MIP-1α, respectively. […]

For CSCC[C@H](NC=O)C(=O)N[C@@H](CC(C)C)C(=O)N[C@@H](Cc1ccccc1)C(=O)O [f-met-leu-phe, reference compound], the “responsiveness of cRNA-injected oocytes to ligand (calcium efflux)” value (from here on “responsiveness … (calcium efflux)”) (MIP-1α/RANTES receptor [1]) was “inactive”.

For “MIP-1α: recombinant human Macrophage Inflammatory Protein-1α, β chemokine (R and D Systems; or Sf9 supernatant)”, the “activation of IL-8 receptor B (calcium efflux)” value (IL-8 receptor B [2]) was “Neither MIPα nor MIP-1β activated”, the “concentration at which the first phase of the oocyte response appeared to saturate” value (MIP-1α/RANTES receptor [1]; calcium efflux, first phase) was roughly 100 NM and the “concentration at which the second phase of the oocyte response did not reach a plateau” value (MIP-1α/RANTES receptor [1]; calcium efflux, second phase) was greater than 5 µM. For the same molecule, the “responsiveness … (calcium efflux)” value (MIP-1α/RANTES receptor [1]) was “acquired responsiveness”.

In the case of Nc1ncnc2c1ncn2[C@@H]1O[C@H](COP(=O)(O)OP(=O)(O)OP(=O)(O)O)[C@@H](O)[C@H]1O [ATP, reference compound], the “responsiveness … (calcium efflux)” value (MIP-1α/RANTES receptor [1]) is reported as “inactive”.

For “GROα: recombinant human GROα/melanoma growth stimulatory activity, α chemokine”, the “responsiveness … (calcium efflux)” value (MIP-1α/RANTES receptor [1]) was “not”.

With NCCc1c[nH]cn1 [histamine, reference compound] the “responsiveness … (calcium efflux)” value (MIP-1α/RANTES receptor [1]) was “inactive”.

CCCCC[C@H](O)/C=C/[C@H]1[C@H](O)CC(=O)[C@@H]1C/C=C\CCCC(=O)O [Prostaglandin E2, reference compound] was tested, and the “responsiveness … (calcium efflux)” value (MIP-1α/RANTES receptor [1]) was “inactive”.

With “IL-8: recombinant human interleukin-8, α chemokine (Genzyme)” the “responsiveness … (calcium efflux)” value (MIP-1α/RANTES receptor [1]) was “not”.

With CCCCCCCCCCCCCCCCOCC(COP(=O)([O-])OCC[N+](C)(C)C)OC(C)=O (stereo not shown) [platelet activating factor, reference compound] the “responsiveness … (calcium efflux)” value (MIP-1α/RANTES receptor [1]) was “inactive”.

For O=c1ccn([C@@H]2O[C@H](COP(=O)(O)OP(=O)(O)OP(=O)(O)O)[C@@H](O)[C@H]2O)c(=O)[nH]1 [UTP, reference compound], the “responsiveness … (calcium efflux)” value (MIP-1α/RANTES receptor [1]) was “inactive”.

For “MCP-1: human recombinant Monocyte Chemoattractant Protein-1 (MCAF, Genzyme)”, the “responsiveness … (calcium efflux)” value (MIP-1α/RANTES receptor [1]) was “not”.

With “^125 I-MIP-1α: carrier free recombinant human MIP-1α (Genzyme) labeled with Na125I” the “specific binding to oocytes expressing IL-8 receptor B” value (IL-8 receptor B [3]) was “did not bind specifically”, the “specific binding to oocytes expressing IL-8 receptor B” value (IL-8 receptor B [3]; listed as 125 I-labeled MIP-1α) was “undetectable” and the “threshold for detection of specific binding” value (MIP-1α/RANTES receptor [4]) was “the same as that required for stimulation of calcium efflux”.

With “RANTES: recombinant human β chemokine, Regulated on Activation, Normal T Expressed and Secreted (Genzyme)” the EC50 (MIP-1α/RANTES receptor [1]; calcium efflux, oocytes injected with receptor cRNA) was roughly 50 nM and the “responsiveness … (calcium efflux)” value (MIP-1α/RANTES receptor [1]) was “acquired responsiveness”.

B1: C5a: C5a, ligand tested in the oocyte calcium efflux screen (protein, UniProt P01031 678-751, looked up)
C5a anaphylatoxin: TLQKKIEEIAAKYKHSVVKKCCYDGACVNNDETCEQRAARISLGPRCIKAFTECCVVASQLRANISHKDMQLGR
modifications: C5a anaphylatoxin
notes: C5a, ligand tested in the oocyte calcium efflux screen
For B1, the “responsiveness … (calcium efflux)” value (MIP-1α/RANTES receptor [1]) was “inactive”.

B2: MIP-1β: recombinant human MIP-1β, diluted supernatant of Sf9 insect cells (clone pAT744) (protein, UniProt P13236 24-92, looked up)
C-C motif chemokine 4: APMGSDPPTACCFSYTARKLPRNFVVDYYETSSLCSQPAVVFQTKRSKQVCADPSESWVQEYVYDLELN
For B2, the “activation of IL-8 receptor B (calcium efflux)” value (IL-8 receptor B [2]) was “Neither MIPα nor MIP-1β activated” and the “responsiveness … (calcium efflux)” value (MIP-1α/RANTES receptor [1]) was “not”.

B3: NAP-2: recombinant human neutrophil activating peptide-2 (Bachem Bioscience) (protein, UniProt P02775 59-128, looked up)
Neutrophil-activating peptide …: AELRCMCIKTTSGIHPKNIQSLEVIGKGTHCNQVEVIATLKDGRKICLDPDAPRIKKIVQKKLAGDESAD
modifications: Neutrophil-activating peptide 2
B3 was tested, and the “responsiveness … (calcium efflux)” value (MIP-1α/RANTES receptor [1]) was “not”.
